Data as given in article PMC5354205, “Structure and assembly of scalable porous protein cages” (Nature Communications, 2017).
Positions count from the first letter of the chain named. Several values for one entry are separate records, joined by “and”; a condition that tells them apart may be missing. Equal values may be shown once. Each block holds one molecule with its values, some of them ahead of it.

Columns and labels:
[1] = molecular target: lumazine synthase from Aquifex aeolicus, wild-type protein (AaLS-wt), C-terminal His6-tag (Aquifex aeolicus) (UniProt O66529); assay: cryo-EM structure; single-particle reconstruction; 20 mM Tris-HCl pH 7.8, 0.2 M NaCl, 5 mM EDTA; monomer 80, 80 and 300 uM; Titan Krios 300 kV
[2] = molecular target: lumazine synthase from Aquifex aeolicus, wild-type protein (AaLS-wt), C-terminal His6-tag (Aquifex aeolicus) (UniProt O66529); assay: native MS; 5 uM monomer in 150 mM ammonium acetate, 25 mM triethylammonium acetate, pH 7.8; modified qTOF, nano-electrospray, positive ion mode; subunit copy number of the cage
[3] = molecular target: AaLS-neg (lumazine synthase from Aquifex aeolicus with R83E, T86E, T120E, Q123E), C-terminal His6-tag (Aquifex aeolicus) (UniProt O66529); assay: cryo-EM structure; single-particle reconstruction; 20 mM Tris-HCl pH 7.8, 0.2 M NaCl, 5 mM EDTA; monomer 80, 80 and 300 uM; Titan Krios 300 kV
[4] = molecular target: the molecule itself; assay: native MS; AaLS-neg pre-incubated in low ionic strength buffer: 10 mM ammonium acetate, pH 7.8; cage dissociated into smaller capsomers
[5] = molecular target: the molecule itself; assay: native MS; 5 uM monomer in 150 mM ammonium acetate, 25 mM triethylammonium acetate, pH 7.8; modified qTOF, nano-electrospray, positive ion mode; subunit copy number of the cage

stoichiometry N [1]: 60
Molecule: lumazine synthase from Aquifex aeolicus, wild-type protein (AaLS-wt), C-terminal His6-tag (from UniProt O66529 1-154) (enzyme)
stoichiometry N [2]: 60

stoichiometry N [3]: 180
Molecule: AaLS-neg (lumazine synthase from Aquifex aeolicus with R83E, T86E, T120E, Q123E), C-terminal His6-tag (from UniProt O66529 1-154)

B1: AaLS-neg lacking a His6-tag (pMG211_AaLS-neg_noHis) (other, Aquifex aeolicus, UniProt O66529 1-154, looked up)
chain: MEIYEGKLTAEGLRFGIVASRFNHALVDRLVEGAIDCIVRHGGREEDITLVRVPGSWEIPVAAGELARKEDIDAVIAIGVLIEGAEPHFDYIASEVSKGLANLSLELRKPITFGVITADELEEAIERAGTKHGNKGWEAALSAIEMANLFKSLR
notes: lumazine synthase, Aquifex aeolicus, with four lumenal residues mutated to glutamate; Made for native MS; 180-mer in 150 mM ammonium acetate; pentamers, 10-mers and 15-mers after low ionic strength; source: E. coli BL21-gold (DE3), purified (lysate heated at 85 °C, MonoQ anion exchange, SEC Sephacryl S-400); copies: 180
stoichiometry N [4]: 5 and 10 and 15
stoichiometry N [5]: 180

B2: AaLS-13 lacking a His6-tag (pMG211_AaLS-13_noHis) (other, Aquifex aeolicus, UniProt O66529 1-154, looked up)
chain: B1 chain with D28G, R52C, T112S, V115D, A118D, R127C, K131E
notes: lumazine synthase, Aquifex aeolicus, with the four mutations of AaLS-neg and seven more from directed evolution; Made for native MS; charge states not resolved, the copy number only estimated (240 to 420); source: E. coli BL21-gold (DE3), purified (ammonium sulphate, MonoQ anion exchange, SEC Sephacryl S-400; 3 mM DTT added)
stoichiometry N [5]: 240 to 420
